{"source": "patent US6805863B2", "about": "“Methods of modulating immune coagulation” (Trillium Therapeutics Inc., priority 1997, dated 2004)", "molecules": {"B1": {"name": "Purified protein: purified murine fg12 fusion protein with six histidine residues and an enterokinase site at the N-terminus, baculovirus expressed (protein)", "chain": "VEEHNLTEGLEDASAQAACPARLEGSGRCEGSQCPFQLTLPTLTIQLPRQLGSMEEVLKEVRTLKEAVDSLKKSCQDCKLQADDHRDPGGNGGNGAETAEDSRVQELESQVNKLSSELKNAKDQIQGLQGRLETLHLVNMNNIENYVDNKVANLTVVVNSLDGKCSKCPSQEHMQSQPVQHLIYKDCSDHYVLGRRSSGAYRVTPDHRNSSFEVYCDMETMGGGWTVLQARLDGSTNFTREWKDYKAGFGNLEREFWLGNDKIHLLTKSKEMILRIDLEDFNGLTLYALYDQFYVANEFLKYRLHIGNYNGTAGDALRFSRHYNHDLRFFTTPDRDNDRYPSGNCGLYYSSGWWFDSCLSANLNGKYYHQKYKGVRNGIFWGTWPGINQAQPGGYKSSFKQAKMMIRPKNFKP", "modifications": "left off: small tags and cut ends", "notes": "purified murine fg12 fusion protein with six histidine residues and an enterokinase site at the N-terminus, baculovirus expressed"}, "B2": {"name": "IFN-γ: murine recombinant γ-interferon (protein, UniProt P01580 23-155, looked up)", "Interferon gamma": "HGTVIESLESLNNYFNSSGIDVEEKSLFLDIWRNWQKDGDMKILQSQIISFYLRLFEVLKDNQAISNNISVIESHLITTFFSNSKAKKDAFMSIAKFEVNNPQVQRQAFNELIRVVHQLLPESSLRKRKRSRC"}}, "key": {"[1]": {"tested_on": "DBA/2-mated CBA/J mice", "test": "Fetal loss in DBA/2-mated CBA/J mice: role of asialoGM1+ NK cells, macrophages and cytokines", "assay_type": "in vivo, mouse", "description": "Inbred mice of strains CBA/J and DBA/2 were obtained from Iffa Credo. France C57B1/6J and DBA/2 mice were obtained from the Jackson Laboratories, Bar Harbor, Me. C57B1/6 mice with knockout of the interferon response element IRF-1 were generated as previously described (Duncan, G. S. et al., J. Exp. Med. 184:2043 (1996)) and bred in at the Ontario Cancer Institute, Toronto. CBA/J mice were maintained in the Paris colony under conventional open-top wire cage conditions with food and water ad lib and a 12 hour light-dark cycle. Mice in the Toronto colony were maintained in a barrier facility. Female CBA/J, C57B1/6 or C57B1/6 IRF−/− mice were mated by overnight cohabitation with a DBA/2J male, and the morning of sighting a vaginal plug was defined as day 0.5 of pregnancy.\nPregnant CBA/J mice were depleted of NK cells by injection of 1 ml rabbit IgG anti-asialoGM1 antibody (Immunocorp, Richmond, Va.) ip on day 6.5 of gestation; phosphate buffered saline (PBS) was used as a control as it has been previously shown to be equivalent to non-immune rabbit IgG (Clark, D. A., Crit. Rev. Immunol. 11:215 (1991)). Macrophage depletion was performed by ip injection of 100 mg/kg silicon dioxide twice a week for 4 weeks prior to mating, as described in Baek, H-S. and J-W. Yoon (J. Virol. 64:5708 (1990)). Affinity-purified rabbit IgG neutralizing antibody to mouse procoagulant (fg12-prothombinase) was prepared as previously described (Ding, J. W. et al., J. Exp. Med. (1997); Dackiw, A. P. B. et al., Arch. Surg. 131:1273 (1996)); the mice were given a ip injection of 200 μl of a 1/50 dilution of a 5.5 mg/ml preparation of anti-prothombinase or control rabbit antibody each day beginning on day 3.5 of gestation. Hormonal support of pregnancy sufficient to replace ovarian function was provided in some experiments by injecting 6.7 ng 17 β-estradiol+1 mg progesterone in 0.1 ml oil im daily beginning on day 4.5 of gestation (Michael, S. D. et al., Biol. Reprod. 12:400 (1975)). One hundred […] of rat monoclonal IgG2b anti-mouse granulocyte antibody RB6-8C5 (Pharmingen) (Stoppacciaro, A. et al., J. Exp. Med. 178:151 (1993)) or isotype control was injected ip on either day 6.5 or on day 8.5 of pregnancy. TNF-α (6 and R&D Systems) 1000 or 2000 units and/or murine recombinant γ-interferon (6 and R&D Systems) 1000 units was injected ip on day 7.5 of pregnancy. On day 13.5 of pregnancy, the mice were sacrificed and the number of resorbing and healthy embryos was counted. In some experiments, the uteri were snap frozen, 5 micron sections were cut, and the tissues were stained with rat monoclonal F4/80 antibody (Caltag, Tebu, France) to macrophages. Briefly, tissue sections were incubated with a 1/30 dilution of F4/80 in PBS for 30 minutes, and binding was detected using peroxidase-streptavidin with biotin-labelled anti-rat IgG2b second antibody (Secrotec) (Kachkache, M. et al., Biol. Reprod. 45:860 (1991)).\nFour to ten mated mice per treatment group were used. The significance of differences in the pooled resorption rate was tested by c^2 of Fisher's Exact test where appropriate."}, "[2]": {"tested_on": "recalcified platelet-poor normal human plasma", "test": "One-stage clotting assay (procoagulant activity, PCA)", "assay_type": "biochemical", "experimental": "This assay for fg12 prothrombinase was used to directly measure procoagulant activity. High 5 cells infected with recombinant virus expressing the mfg12 fusion protein were subjected to cycles of freeze thawing. They were then assayed for their ability to accelerate the spontaneous clotting time of recalcified platelet-poor normal human plasma as previously described (Levy & Edgington, 1980). Results were quantitated by comparison with serial dilutions of standard rabbit brain thromboplastin. Activities from cells infected with the recombinant virus were compared with those uninfected and wild-type virus infected, and with the purified protein alone. Proteins involved in the coagulation pathway require a phospholipid bilayer for functional activity; therefore purified protein was reconstituted into […] to determine their PCA activity. Additional PCA assays were performed with human plasma deficient in coagulation factors II, V, VII, VIII, X, and XII to determine the nature (factor dependence) of the expressed PCA."}, "[3]": {"tested_on": "125I-prothrombin", "test": "Prothrombin cleavage assay", "assay_type": "biochemical", "conditions": "FIG. 22"}, "[4]": {"conditions": "Expt 1, anti-asialoGM1 pretreated (NK depleted) mice, 1000 u day 7.5"}, "[5]": {"conditions": "Expt 1, anti-asialoGM1 pretreated (NK depleted) mice, 2000 u day 7.5"}, "[6]": {"conditions": "Expt 1, day 6.5 PBS, 1000 u ip day 7.5, day 13.5 assay"}, "[7]": {"conditions": "Expt 1, day 6.5 PBS, 2000 u ip day 7.5, day 13.5 assay"}, "[8]": {"conditions": "Table 9, 20 ng added to H5 cells + RV"}, "[9]": {"conditions": "Table 9, 100 ng added to H5 cells + RV"}, "[10]": {"conditions": "Table 9, 3 μg reconstituted into H5 cells"}, "[11]": {"conditions": "Table 9, purified protein 3 μg alone"}, "[12]": {"conditions": "Expt 2, anti-asialoGM1 pretreated (NK depleted) mice, 1000 u IFN-γ, TNF-α 1000 u or 2000 u pooled"}, "[13]": {"conditions": "Expt 2, day 6.5 PBS, 1000 u IFN-γ, TNF-α 1000 u or 2000 u pooled, day 7.5"}}, "note": "“And” between values parts separate entries of the source, which are not always exact repeats. Equal values may be shown once. Marks after values point to notes of the source that are not given here.", "data": [{"molecule": "TNF-α", "values": [{"measurement": "% fetal losses", "setting": "[1]; [4]", "result": 16, "unit": "%^e"}, {"measurement": "resorptions/total", "setting": "[1]; [4]", "result": "12/63"}, {"measurement": "% fetal losses", "setting": "[1]; [5]", "result": 22, "unit": "%^e"}, {"measurement": "resorptions/total", "setting": "[1]; [5]", "result": "12/55"}, {"measurement": "% fetal losses", "setting": "[1]; [6]", "result": 72, "unit": "%^b"}, {"measurement": "resorptions/total", "setting": "[1]; [6]", "result": "43/60"}, {"measurement": "% fetal losses", "setting": "[1]; [7]", "result": 89, "unit": "%^c"}, {"measurement": "resorptions/total", "setting": "[1]; [7]", "result": "57/64"}]}, {"molecule": "B1", "values": [{"measurement": "PCA", "setting": "[2]; Table 7, purified protein 3 μg, uninfected High 5 cells <1", "result": "<1", "unit": "Miliunits/2 × 10^6 cells"}, {"measurement": "PCA Time", "setting": "[2]; Table 7, purified protein 3 μg, uninfected High 5 cells >240", "result": 220, "unit": "s"}, {"measurement": "PCA Milliunits", "setting": "[2]; [8]", "result": 1254, "unit": "mU/2 × 10^6 cells"}, {"measurement": "PCA Time", "setting": "[2]; [8]", "result": 57, "unit": "s"}, {"measurement": "PCA Milliunits", "setting": "[2]; [9]", "result": 1543, "unit": "mU/2 × 10^6 cells"}, {"measurement": "PCA Time", "setting": "[2]; [9]", "result": 54, "unit": "s"}, {"measurement": "PCA Time", "setting": "[2]; Table 9, 3 μg added to H5 cells + RV (printed for two lines)", "result": "50 s and 34 s"}, {"measurement": "PCA Milliunits", "setting": "[2]; [10]", "result": 3634, "unit": "mU/2 × 10^6 cells"}, {"measurement": "PCA Time", "setting": "[2]; [10]", "result": 42, "unit": "s"}, {"measurement": "PCA Milliunits", "setting": "[2]; [11]", "result": "<1", "unit": "mU/2 × 10^6 cells"}, {"measurement": "PCA Time", "setting": "[2]; [11]", "result": 220, "unit": "s"}, {"measurement": "PCA after reconstitution of purified protein into insect cells", "setting": "[2]; preliminary results", "result": "partial PCA activity recovery"}, {"measurement": "PCA detected", "setting": "[2]; purified soluble protein alone", "result": "no activity"}, {"measurement": "prevention of PCA expression by cells infected with recombinant virus", "setting": "[2]; soluble mfg12 protein added to cell lysate", "result": "incapable of preventing the clotting induced by the cell lysate"}, {"measurement": "cleavage of 125I-prothrombin (SDS-PAGE autoradiography)", "setting": "[3]", "result": "no prothrombin cleavage"}]}, {"molecule": "B2", "values": [{"measurement": "% fetal losses", "setting": "[1]; [12]", "result": 12, "unit": "%^e"}, {"measurement": "resorptions/total", "setting": "[1]; [12]", "result": "12/98"}, {"measurement": "% fetal losses", "setting": "[1]; [13]", "result": 85, "unit": "%^g"}, {"measurement": "resorptions/total", "setting": "[1]; [13]", "result": "79/93"}]}]}
